The record followed here is the nanobody polyreactivity screen of Harvey et al. (2022).

The data set can be described thus: yeast display, Sf9 membrane polyspecificity reagent, FACS + sequencing; frameworks hold sequencing errors. Put shortly: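 A synthetic nanobody library was expressed on Saccharomyces cerevisiae BJ5465 by galactose induction for 36–48 hours. The library was stained for 1 hour at 4 °C with 10% biotinylated, detergent-solubilized Sf9 membrane reagent and enriched with streptavidin microbeads before FACS. Low and high (top ~1%) gates were set on anti-HA fluorescence for expression and streptavidin fluorescence for reagent binding, and each polyreactivity label reflects the gate of origin.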
Consider “QVQLVESGGGLVQAGGSLRLSCAASGSIFAAYTMGWYRQAPGKERELVAAISVSTVSTNYADSVQGRFTISRDNAKNTVFLQMNRLKPEDTAVYYCNADATDSYPEKDEHDSWGQGTEVTVSS”, for which the “polyreactivity (PSR sort gate)” value was “low polyreactivity”. For “QVQLVESGGGLVQAGGSLRLSCAASGSIFAAYTMGWYRQAPGKQRELVAAISSGTRTNYADSVKGRFTISRDNAKNTVYLQLNSLKPEDTAVYYWNADVSALWWPEEWYNASEFDYWGQGTQVTVSS”, the “polyreactivity (PSR sort gate)” value is on record as “low polyreactivity”. For the sequence “QVQLVESGGGLVQAGGSLRLSCAASGSIFADNAMGWDRQAPGKERELVAAISRTGGSTYYADSVKGRFTISRDNSKNTVYLQMNSLKPEDTAVYYCAADNGYGRYRRYYYWGQGTQVTVSS”, the “polyreactivity (PSR sort gate)” value was “high polyreactivity”.

With “QVQLVESGGGLVQAGGSLRLSCAASGSIFADNGMGWYRQAPGKERELVAAINSGSTYADSVKGRFTISRDNAKNTVYLQMNSLKPEDTAVYYCNADGVTSGRVDYWGQGTQVTVSS”, the “polyreactivity (PSR sort gate)” value was “low polyreactivity”.

As to “QVQLVESGGGLVQAGGSLRLSCAASGSIFADYAMGWYRQAPGKERELVAAITASGGTTYYADSVKGRFTISRDNAKNTVYVQMNSLKPEDTAVYYCNAGNRTFLYDRDDYWGQGTQVSVSS”, the “polyreactivity (PSR sort gate)” value is given as “high polyreactivity”. In the case of “QVQLVESGGGLVQAGGSLRLSCAASGSIFADYTMGWYRQAPGKERELVAAISSDDSTYYADSVKGRFTISRDNAKNTVYLQMNSLKPEDTAVYYCNDDGSIGPEEYWGQGTQVTVSS”, the “polyreactivity (PSR sort gate)” value is reported as “low polyreactivity”. Turning to “QVQLVESGGGLVQAGGSLRLSCAASGSIFAFNGMGGYRPAPGKERELVAGITISDSTNYADSVKGRFTISRDNAKNTVSLQMNSLKPEVTAVYYCNADYEQYVYWYWFIKYDYWGQVTQVTVSS”, the “polyreactivity (PSR sort gate)” value is on record as “low polyreactivity”. Next, “QVQLVESGGGLVQAGGSLRLSCAASGSIFAFNVMGWYRQAPGKERELVAAITWGGRTYYADSVKGRFTISRDNAKNTVYLQMNSLKPEDTAVYYCAAYPLYRVSHGYEYNYWGQGTQVTVSS”: “high polyreactivity”. With “QVQLVESGGGLVQAGGSLRLSCAASGSIFAGYAMGWYRQAPGKERELVAAISSSGGRTYYADSVKGRFTISRDNAKNTVYLQMNSLKPVDTAVYYCAVSTYEEEYWGQGTQVTVSS”, the “polyreactivity (PSR sort gate)” value was “high polyreactivity”.

“QVQLVESGGGLVQAGGSLRLSCAASGSIFAHNAMGWSRQAPGKESEMVAAISSGGSTNYADSVKGRFTISRDNAKNTVYLQMNSLKPEDTAVDYCAKSIDGWYWRRRRYDYWGQGTQVTVSS”: the “polyreactivity (PSR sort gate)” value is given as “low polyreactivity”.

In the case of “QVQLVESGGGLVQAGGSLRLSCAASGSIFAHYTMGWYRQAPGKERELVASISYRATRTHYADSVKGRFTISRDNAKNTVYLQMNSLKPEDTAVYYCNKGGYPGLQWGNYPPYRSKDDYWGQGTQVTVSS”, the “polyreactivity (PSR sort gate)” value is given as “high polyreactivity”. Consider “QVQLVESGGGLVQAGGSLRLSCAASGSIFAIYAMGWYRQAPGKERELVAAISYGDGSTYYADSVKGRFTISRDNAKNTVYLQMNSLKPEDTAVYYCAVGTRVKYDYWGQGTQVTVSS”, for which the “polyreactivity (PSR sort gate)” value is recorded as “high polyreactivity”. On to “QVQLVESGGGLVQAGGSLRLSCAASGSIFAKYAMGWYRQAPGKDREFVAAIRASGGRTYYADSVKGRFTISRDTAKNTVYLQMNSLKPEDSAVYYCNARKYLIPKMDYWGQGTQVTVSS”, for which the “polyreactivity (PSR sort gate)” value was “high polyreactivity”. On to “QVQLVESGGGLVQAGGSLRLSCAASGSIFAKYAMGWYRQAPGKEREFVAAIRASGGRTYYADSVKGRFTISRDNAKNTVYLKMNSLKPEDTAFYYCASDVSYRAGFDYWGQGTQVTVSS”, for which the “polyreactivity (PSR sort gate)” value is “high polyreactivity”. For the sequence “QVQLVESGGGLVQAGGSLRLSCAASGSIFAPNAMGWYRQAPGKERELVAAITYGGGRTYYADSVKGRFTISRDNAKNTVYLQMNSLNPEDTAVYYCNALFSVRGYTWRSAAQDMDYWGQGTQVTVSS”, the “polyreactivity (PSR sort gate)” value is given as “high polyreactivity”. Consider “QVQLVESGGGLVQAGGSLRLSCAASGSIFAPYAMGWYRQAPGKEREFVATITWGGGRTYYADSVKGRFTISRDNAKNTVYLQMNSLKPEDTAVYYCAAAIYYGSLGLFDYWGQGTQVTVSS”, for which the “polyreactivity (PSR sort gate)” value is “high polyreactivity”. Regarding “QVQLVESGGGLVQAGGSLRLSCAASGSIFAPYAMGWYRQAPGKERELVAAISWSGDSTYYADSVKGRFTISRDNAKNTVYLQMNSLKPEDTAVSYCAAAGGFDYDYWGQATQVTVSS”, the “polyreactivity (PSR sort gate)” value is on record as “low polyreactivity”.

For “QVQLVESGGGLVQAGGSLRLSCAASGSIFAQYAMGWYRQAPGKERELVAAISRTGGGTYYADSVKGRFTISRDNAKNTVYLQMNSLKPEDTAVYYCAAVPGLFYLPYDYWGQGTQVTVSS”, the “polyreactivity (PSR sort gate)” value is given as “low polyreactivity”. The same measure for “QVQLVESGGGLVQAGGSLRLSCAASGSIFAQYAMGWYRQAPGKERELVAAITRGGGNTYYADTVKGRFTISRDNAKNTVYLQMNSLKPEDTAVYYCAANRRDGYVYWGQGTQVTVSS”: “low polyreactivity”.

Regarding “QVQLVESGGGLVQAGGSLRLSCAASGSIFARYALGWYRQAPGKERELVDAITRSGVSTYSADSVKGRFTISRDNAKNTVYLQMNSLKPEDTAVYYCNADYPIRSSPYGYYYWGQGTQVTVSS”, the “polyreactivity (PSR sort gate)” value was “high polyreactivity”. “QVQLVESGGGLVQAGGSLRLSCAASGSIFASNTMGWSRQATGKERELVAGITKIGSSTYYADSVKGRFTISRDNAKNTVYLQMNSLKPEDTEVYYCNAYGPNIYSSRYDYWGQGTQVTVSS”: the “polyreactivity (PSR sort gate)” value was “low polyreactivity”. For the sequence “QVQLVESGGGLVQAGGSLRLSCAASGSIFASYAMGWYRQAPGKERELVAAISDGGGRTYYADSVKGRFTISRDNAKNTVYLQMNSLKPEDTAVYYCAAYAVYTYRRARGYWGQGTQVTVSS”, the “polyreactivity (PSR sort gate)” value was “high polyreactivity”.

As to “QVQLVESGGGLVQAGGSLRLSCAASGSIFASYAMGWYRQAPGKERELVAAISQNGSRTYYAVSVKGRFTISRDNAKYTVYLQMNSLKPEDTAVYYCAVLSRQYFRYGYDYWGQGTQVTVSS”, the “polyreactivity (PSR sort gate)” value is recorded as “high polyreactivity”. The same measure for “QVQLVESGGGLVQAGGSLRLSCAASGSIFASYAMGWYRQAPGKERELVAAISRSGTSTRYADSVKGRFTISRDNAKNTVYLQMNSLKPEDTAVYYCAARWYVFFRKYDYWGQGTQVTVSS”: “high polyreactivity”; for “QVQLVESGGGLVQAGGSLRLSCAASGSIFATYAMGWYIQAPGKERELVASITTDGSTHYADSVKGRFTISRDNAKNTVYLQMNSLKPEDTAVYYCNTETGPSPVPVYDTEFDSWGQGTQVTVSS”: “low polyreactivity”; for “QVQLVESGGGLVQAGGSLRLSCAASGSIFAVNAMGLYRQAPGKERELVATITGRDGSTYYADSVKGRFTISRDNAKNTVYLQMNRLKPEDTAVYYCTARRKRTYDYWGQGTQVTVSS”: “high polyreactivity”. The same measure for “QVQLVESGGGLVQAGGSLRLSCAASGSIFAWYAMGRYRQAPGKEMELVAAIRYRGDGTYYADSVKGRFTISRDNAKNTVYLQMNSLKPEDTAVYYCAADSRVYRGGYIYRYGYWGQGTQVTVSS”: “low polyreactivity”; for “QVQLVESGGGLVQAGGSLRLSCAASGSIFAYNAMGWYRQAPGKERELVAAITGSGGSTDYADSVKGRFTISRDNAKNTVYLQMNSLKPEDTAVYYCNADWWSEWKLYDYWGQGTQVTVSS”: “low polyreactivity”; for “QVQLVESGGGLVQAGGSLRLSCAASGSIFAYNAMGWYRQAPGKERELVAGISSRGGRTYYADSVKGRFTISRDNAKNTVYLQKNSLKPEDTAVYNCNKRSVPGTYYPTPVRYKYDYWGQGTQVTVSS”: “high polyreactivity”.

As to “QVQLVESGGGLVQAGGSLRLSCAASGSIFAYYAMGWYRQAPGKERDLVAAISYSGDGTYYADSVKGRFTISRDNAKNTVYLQMNSLKREDTAVYYCATQIYPLDFYQGDWNDYWGQGTQVTVSS”, the “polyreactivity (PSR sort gate)” value is listed as “low polyreactivity”. Take “QVQLVESGGGLVQAGGSLRLSCAASGSIFAYYAMGWYRQAPGKERELVAGIRISGGRTYYADSVKGRFTISRDTAKNTVYLQMNSLKPEDTAVYYCNARWRGFRTGAGDYWGQGTQVTVSS”: the “polyreactivity (PSR sort gate)” value is recorded as “high polyreactivity”.

With “QVQLVESGGGLVQAGGSLRLSCAASGSIFAYYVMGWYRPAPGKERELVAAITRAGSTYYADSVKGRFTISRDNGKNTVYLQMNSLKPEVSAVYYCDARVGYYFRPESYYWGQGTKVTVSS”, the “polyreactivity (PSR sort gate)” value is recorded as “high polyreactivity”.

For “QVQLVESGGGLVQAGGSLRLSCAASGSIFCVYAMGWYRQAPGKERELVAAISQSGGRTYYADSVKGRFTISRDNAKNTVYLQMNSLKPEDTAVYYCAAVVFNVYRRYWGQGTQVTVSS”, the “polyreactivity (PSR sort gate)” value is “high polyreactivity”.

For the sequence “QVQLVESGGGLVQAGGSLRLSCAASGSIFCYALGWNRQAPGKKRELVAAITGRCTSTYADSVKGRFTISLDNAKNTVYLQTNSLKPEDTAVYYCGPVGWFAEFLFSDIYGYYWGQGTQVTVSS”, the “polyreactivity (PSR sort gate)” value is on record as “low polyreactivity”. For “QVQLVESGGGLVQAGGSLRLSCAASGSIFDAYAMGWYRQAPGKERELVAAITTGGGSTYYADSVMGRFTISRDNAKNTVYLQMNSLKPEDTAVYYCARDYGKYKGYYWGQGTQVTVSS”, the “polyreactivity (PSR sort gate)” value is given as “low polyreactivity”.

Consider “QVQLVESGGGLVQAGGSLRLSCAASGSIFDDYAMGWYRQAPGKERELVAAISSSGTSTYYADSVKGRFTISRDNAKNTVYLQMNSLKQEDTAVYYCAARSAILKSGYLMDYWGQGTQVTVSS”, for which the “polyreactivity (PSR sort gate)” value is given as “low polyreactivity”. Take “QVQLVESGGGLVQAGGSLRLSCAASGSIFDDYAMGWYRQAPGKERELVAAISWSGGRTYYADSVKGRFTISRDNAKNTVYLQMNSLKPEDTAVYYCAATTGVRSRRYYYWGQGTQVTVSS”: the “polyreactivity (PSR sort gate)” value is recorded as “low polyreactivity”. In the case of “QVQLVESGGGLVQAGGSLRLSCAASGSIFDFNAMGWYRQAPGKERELVATIRYSGGSTYYADSVKGRFTISRDNAKNTVYLQMNSLKPEDTAVYYCIFRSPSYEYDYWGQGTQVTVSS”, the “polyreactivity (PSR sort gate)” value is listed as “low polyreactivity”. The same measure for “QVQLVESGGGLVQAGGSLRLSCAASGSIFDFNTMGWYIQAPGKERELVAAISQRTGRTYYADSVKGRFTISRDKAKNTVYLQMNSLKPEDTAVYYCAKVAVAGRGSGNYINHRFEYWGQGTQVTVSS”: “high polyreactivity”; for “QVQLVESGGGLVQAGGSLRLSCAASGSIFDGYAMGWYRQAPGTERELVAGISGRGTRTYYADSVKGRFTISRDYAMNTVYLQMNSLKPEDTAVYYCNKAGYFHRLKYYYWGQGTQVTVSS”: “high polyreactivity”.
